{
  "source": "paper PMC5226589",
  "key": {"[1]": {"target": "telomere target construct (TCON): HALO-tagged fusion of EGFP, CIB1 and TRF1 (UniProt Q8GY61)"}, "[2]": {"target": "telomere target construct (TCON): HALO-tagged fusion of EGFP, CIB1 and TRF1 (UniProt Q8GY61)", "assay": "FRET or BRET; FLIM-FRET in live HeLa cells co-transfected with TCON and ECON; lifetime of EGFP (donor) with mCherry (acceptor); blue light 8 mW/cm^2 for 5 min (a similar response after 8 min at 1 mW/cm^2)"}},
  "data": [
    {"substance": "epigenetic effector construct (ECON): HALO-tagged fusion of DNMT3A, CRY2PHR and mCherry (from UniProt Q9Y6K1 1-912)", "values": [
      {"measurement": "mean telomere length (TRF, Southern blot) of co-transfected HeLa cells exposed to blue light over three generations (5.3 Kb Gen-1 to 6.03 Kb Gen-3; without light 5.01 Kb to 4.6 Kb)", "setting": "[1]", "result": 6.03, "unit": "Kb"},
      {"measurement": "average fluorescence lifetime of EGFP (FRET donor on TCON) after 5 min of blue light", "setting": "[2]", "result": 2.06, "unit": "ns"}
    ]}
  ]
}
